Experimental findings from PMC8295233 (Immunobiology, 2021) are described below.

Test [1] concerns the target ERAP1_R (Homo sapiens, UniProt Q9NZ08). Kind of test: SPR binding analysis of peptide analytes to immobilized ERAP1_R. Particulars: pH 6.2, read-out: ka.
The target of test [2] is ERAP1 regulatory domain with a C-terminal His6-tag (human, UniProt Q9NZ08 529-941). Kind of test: SPR. (SPR reads the build-up and loss of mass on a sensor chip optically.)
Test [3] deals with ERAP1 regulatory domain, the domain part of the SPF and LPF fused constructs (human, UniProt Q9NZ08 529-941). Kind of test: crystal structure.

No end group written: not given here.

As to “LVAFKARKF [Free Peptide (LVAFKARKF), LVAFKARKF]”, the kon in test [1] came to 734 M⁻¹ s⁻¹.

B1: SPF single-chain fused construct (ERAP1_R with FKARKF fused to its C-terminal end), His6-tag removed (domain or fragment, human)
chain: GFPLITITVRGRNVHMKQEHYMKGSDGAPDTGYLWHVPLTFITSKSDMVHRFLLKTKTDVLILPEEVEWIKFNVGMNGYYIVHYEDDGWDSLTGLLKGTHTAVSSNDRASLINNAFQLVSIGKLSIEKALDLSLYLKHETEIMPVFQGLNELIPMYKLMEKRDMNEVETQFKAFLIRLLRDLIDKQTWTDEGSVSERMLRSQLLLLACVHNYQPCVQRAEGYFRKWKESNGNLSLPVDVTLAVFAVGAQSTEGWDFLYSKYQFSLSSTEKSQIEFALCRTQNKEKLQWLLDESFKGDKIKTQEFPQILTLIGRNPVGYPLAWQFLRKNWNKLVQKFELGSSSIAHMVMGTTNQFSTRTRLEEVKGFFSSLKENGSQLRCVQQTIETIEENIGWMDKNFDKIRVWLQSEKLERMFKARKF
In the case of B1, in test [2], the Kd was determined as 32 µM, the koff is 0.112 s⁻¹ and the kon amounted to 3500 M⁻¹ s⁻¹.

Take FKARKF [SPF peptide (short peptide with Phe anchor), the peptide part of the SPF fused construct]: the binding result in test [3] is on record as “binds”.

As to AAAAFKARKF [LPF peptide (long peptide with Phe anchor), the peptide part of the LPF fused construct], the binding result in test [3] is “binds”.

Consider LVAFKARKF [free peptide LVAFKARKF (optimized ERAP1 substrate)], for which, in test [2], the Kd came to 19.8 µM and the dissociation rate constant (koff) amounted to 0.0145 s⁻¹.

B2: LPF single-chain fused construct (ERAP1_R with AAAAFKARKF fused to its C-terminal end), His6-tag removed (domain or fragment, human)
chain: GFPLITITVRGRNVHMKQEHYMKGSDGAPDTGYLWHVPLTFITSKSDMVHRFLLKTKTDVLILPEEVEWIKFNVGMNGYYIVHYEDDGWDSLTGLLKGTHTAVSSNDRASLINNAFQLVSIGKLSIEKALDLSLYLKHETEIMPVFQGLNELIPMYKLMEKRDMNEVETQFKAFLIRLLRDLIDKQTWTDEGSVSERMLRSQLLLLACVHNYQPCVQRAEGYFRKWKESNGNLSLPVDVTLAVFAVGAQSTEGWDFLYSKYQFSLSSTEKSQIEFALCRTQNKEKLQWLLDESFKGDKIKTQEFPQILTLIGRNPVGYPLAWQFLRKNWNKLVQKFELGSSSIAHMVMGTTNQFSTRTRLEEVKGFFSSLKENGSQLRCVQQTIETIEENIGWMDKNFDKIRVWLQSEKLERMAAAAFKARKF
In test [2], B2 gave a Kd of 21.3 µM, a koff of 0.091 s⁻¹ and a kon of 4270 M⁻¹ s⁻¹.

The Kd is the constant that tells how readily two partners part at equilibrium. The low end stands for a tighter complex, the high end for a looser complex. What is called koff is the rate constant with which the complex falls apart. Low readings indicate a long-lived complex, high ones a short-lived complex.
